Measurements as given in patent CN111018979A (DONGGUAN PENGZHI BIOTECHNOLOGY CO LTD, dated 2020).

Target: T1, cTnI质控品重组蛋白 (recombinant cardiac troponin I quality-control antigen, made in-house) (human, UniProt P19429 1-210, limits assumed)
T1 construct: The assay paragraph says only 'cTnI质控品重组蛋白(公司自产重组抗原)', so the limits of the construct are unknown; also called 心肌肌钙蛋白I; cTnI质控品重组抗原
Test: BLI, antibody held on AMC sensor, cTnI recombinant protein in solution in a dilution series

T1 sequence (P19429 whole entry): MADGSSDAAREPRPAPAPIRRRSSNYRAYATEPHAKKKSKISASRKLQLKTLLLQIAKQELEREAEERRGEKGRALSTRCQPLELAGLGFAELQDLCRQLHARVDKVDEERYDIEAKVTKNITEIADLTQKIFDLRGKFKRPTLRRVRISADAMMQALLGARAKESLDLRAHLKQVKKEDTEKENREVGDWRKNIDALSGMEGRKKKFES

Kd: 64.8 nM
koff: 0.0027 s⁻¹
kon: 41700 M⁻¹ s⁻¹
B1: Anti-cTnI 2E7 recombinant antibody (sample 1 of Example 1) (antibody, V domains shown)
VH: QVQLQQPGAELVRPGASVKLSCKASDYTFSSYWMQWVKQRPGQGLEWIGMLDPSDSETHYNQLFKDKATLTVDKSSNTAYMQLSSLTSEDSAVYFCAFLTSLGDYWGQGTTLTVSS
VL: DVLMTQTPLSLPVSLGDQASISCRSSQSIIHSQGNSYLEWYLQKPGQSPKLLLYKVSQRLSGVPDRFSGSGSGTDFTLKISRVEAEDLGVYYCFNGSHLPITFGAGTKLELK
